Assay results as given in patent publication US20250179200A1 (UNIVERSITY OF CHICAGO, published 2025).

Columns and labels:
[1] = biological target: T1, Growth Hormone Receptor (GHR) immobilized on a high binding plate (UniProt P10912 19-264, limits assumed); experiment: competition ELISA: Fab titrated on plate-bound GHR preincubated with 200 nM GH (the legend of 6A names B2036), anti-human Fab-HRP
T1 sequence (looked up): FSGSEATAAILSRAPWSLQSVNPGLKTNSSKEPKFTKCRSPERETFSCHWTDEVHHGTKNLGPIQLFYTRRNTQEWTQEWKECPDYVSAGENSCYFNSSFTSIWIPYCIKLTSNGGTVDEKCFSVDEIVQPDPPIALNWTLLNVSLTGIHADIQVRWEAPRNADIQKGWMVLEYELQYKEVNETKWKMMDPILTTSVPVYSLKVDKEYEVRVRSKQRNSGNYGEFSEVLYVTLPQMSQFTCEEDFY
Experimental: 200 nM of GHR was immobilized on a 96-well high binding plate (Geiner Bio) and blocked with 5% BSA overnight. […] The Fab binding to GHR was detected using HRP-conjugated anti-human (Fab)2 antibody (Jackson ImmunoResearch, 1:5000 dilution in PBST), and the signal was developed with TMB substrate.

[2] = biological target: T2, Human GHR-Fc-10x His (extracellular region of human growth hormone receptor fused to human Fc) (human, UniProt P10912 50-256); experiment: SPR, GHR_Fc-10xHis on Ni-NTA chip, Fab in 2-fold dilutions from 50 nM, 1:1 fit
T2 construct: Captured by its 10x His-tag on a Ni-NTA sensor chip for SPR; not shown: human Fc domain of vector pAB1200 with its linker; 10x His-tag replacing the AviTag
T2 sequence (looked up): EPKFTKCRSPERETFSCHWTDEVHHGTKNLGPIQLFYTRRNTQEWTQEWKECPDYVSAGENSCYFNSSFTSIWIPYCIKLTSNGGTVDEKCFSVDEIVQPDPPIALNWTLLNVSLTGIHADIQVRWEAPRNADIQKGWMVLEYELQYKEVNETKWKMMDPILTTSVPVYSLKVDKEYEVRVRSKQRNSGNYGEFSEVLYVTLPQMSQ
Experimental: (§1) Surface plasmon resonance (SPR) measurements were conducted in a MASS-1 (Bruker) instrument. The target GHR-Fc (50 nM) with a 10× His-tag was captured in a Ni-NTA sensor chip. […] Flow rate was 30 ul/min and temperature 20° C. Sensograms were corrected through double referencing and fitting was done with a 1:1 binding model using the Sierra Analyzer (Bruker). For epitope binning experiments, the first FAB was injected at saturating concentrations (200 nM), followed by injection a second FAB in equal molar mixture with the first FAB, and the response unit (RU) was recorded.
(§2) Target GHR_Fc (from different species) were immobilized via a 10× His-tag to a Ni-NTA sensor chip. […] Sensograms were corrected through double referencing and 1:1 binding model fit was done using Sierra Analyzer (Bruker). To reveal different epitopes on GHR, the epitope binning experiment was performed.

[3] = biological target: T3, Rabbit GHR_Fc with 10x His-tag (rabbit, UniProt P19941 19-264, limits assumed); experiment: as above
T3 construct: not shown: Fc domain and 10x His-tag
T3 sequence (looked up): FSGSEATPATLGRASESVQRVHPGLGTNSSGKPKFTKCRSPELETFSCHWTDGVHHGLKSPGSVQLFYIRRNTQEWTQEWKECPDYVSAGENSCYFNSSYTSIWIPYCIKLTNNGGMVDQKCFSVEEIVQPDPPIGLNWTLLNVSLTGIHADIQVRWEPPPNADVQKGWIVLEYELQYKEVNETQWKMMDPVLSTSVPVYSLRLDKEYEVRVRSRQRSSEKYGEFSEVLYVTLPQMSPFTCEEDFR
Experimental: as §1, §2

[4] = biological target: T4, Pig GHR_Fc with 10x His-tag (pig, UniProt P19756 19-264, limits assumed); experiment: as above
T4 construct: not shown: Fc domain and 10x His-tag
T4 sequence (looked up): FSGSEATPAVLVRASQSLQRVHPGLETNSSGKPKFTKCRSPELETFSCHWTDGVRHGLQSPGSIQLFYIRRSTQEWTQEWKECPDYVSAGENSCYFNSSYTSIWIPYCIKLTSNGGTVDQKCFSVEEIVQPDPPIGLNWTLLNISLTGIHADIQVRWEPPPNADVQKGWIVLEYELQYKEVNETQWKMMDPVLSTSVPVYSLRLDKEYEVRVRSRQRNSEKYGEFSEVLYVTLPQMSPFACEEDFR
Experimental: as §1, §2

[5] = biological target: T5, Cyno GHR_Fc with 10x His-tag (Cyno, UniProt A0A2K5WH01 19-262); experiment: as above
T5 construct: not shown: Fc domain and 10x His-tag
T5 sequence: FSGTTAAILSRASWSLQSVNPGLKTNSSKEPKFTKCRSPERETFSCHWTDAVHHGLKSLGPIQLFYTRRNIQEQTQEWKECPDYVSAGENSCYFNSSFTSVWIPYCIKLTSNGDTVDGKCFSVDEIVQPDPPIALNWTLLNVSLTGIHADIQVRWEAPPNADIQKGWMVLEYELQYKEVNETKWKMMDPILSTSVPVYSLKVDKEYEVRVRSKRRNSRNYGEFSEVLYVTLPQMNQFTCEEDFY
Experimental: as §1, §2

[6] = biological target: T6, Rat GHR_Fc with 10x His-tag (rat, UniProt P16310 19-265, limits assumed); experiment: as above
T6 construct: not shown: Fc domain and 10x His-tag
T6 sequence (looked up): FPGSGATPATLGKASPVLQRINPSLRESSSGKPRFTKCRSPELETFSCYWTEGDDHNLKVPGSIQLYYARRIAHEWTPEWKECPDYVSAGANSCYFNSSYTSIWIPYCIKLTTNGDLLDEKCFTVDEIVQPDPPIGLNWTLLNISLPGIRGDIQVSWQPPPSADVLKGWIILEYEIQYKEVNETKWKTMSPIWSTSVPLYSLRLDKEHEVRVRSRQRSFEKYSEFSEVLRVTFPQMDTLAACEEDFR
Experimental: as §1, §2

[7] = biological target: T7, Murine GHR_Fc with 10x His-tag (murine, UniProt P16882 25-273, limits assumed); experiment: as above
T7 construct: not shown: Fc domain and 10x His-tag
T7 sequence (looked up): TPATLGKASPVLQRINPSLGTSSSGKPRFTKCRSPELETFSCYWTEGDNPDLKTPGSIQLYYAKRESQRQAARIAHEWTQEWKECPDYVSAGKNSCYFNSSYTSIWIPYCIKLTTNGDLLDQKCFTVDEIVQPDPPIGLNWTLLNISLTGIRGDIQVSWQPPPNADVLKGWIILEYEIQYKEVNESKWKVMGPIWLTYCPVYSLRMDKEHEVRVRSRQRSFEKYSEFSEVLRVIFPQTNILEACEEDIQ
Experimental: as §1, §2

B1: GHR_TS40 Fab (Fab, V domains shown)
VH: EVQLVESGGGLVQPGGSLRLSCAASGFNVSYYYIHWVRQAPGKGLEWVASIYPSSGYTSYADSVKGRFTISADTSKNTAYLQMNSLRAEDTAVYYCARYYWPASYWSGYSALDYWGQGTLVTVSS
VL: DIQMTQSPSSLSASVGDRVTITCRASQSVSSAVAWYQQKPGKAPKLLIYSASSLYSGVPSRFSGSRSGTDFTLTISSLQPEDFATYYCQQYPWGLITFGQGTKVEIKR
Q: For B1, which EC50 [1] is on record?
A: Its EC50 is 132 nM.

B2: GHR_TS23 Fab (Fab, V domains shown)
VH: EVQLVESGGGLVQPGGSLRLSCAASGFNFYYSSIHWVRQAPGKGLEWVASIYSYSGSTSYADSVKGRFTISADTSKNTAYLQMNSLRAEDTAVYYCARQYWYYGGYFYYGIDYWGQGTLVTVSS
VL: DIQMTQSPSSLSASVGDRVTITCRASQSVSSAVAWYQQKPGKAPKLLIYSASSLYSGVPSRFSGSRSGTDFTLTISSLQPEDFATYYCQQYWSTLITFGQGTKVEIKR
notes: Fab from the cross-species phage display selection
Q: For B2, which Kd [2] is on record?
A: Its Kd is 0.2 nM.

Q: What about the koff [2] of the same binder?
A: The koff was 0.00017 s⁻¹.

Q: What about the kon [2] of the same binder?
A: Its kon is 830000 M⁻¹ s⁻¹.

Q: And the Kd [3]?
A: Its Kd is 2.5 nM.

Q: What about the koff [3] of the same binder?
A: The koff was 0.0014 s⁻¹.

Q: And the kon [3]?
A: Its kon is 560000 M⁻¹ s⁻¹.

Q: What about the Kd [4] of the same binder?
A: Its Kd is 1.8 nM.

Q: And the koff [4]?
A: The koff was 0.0012 s⁻¹.

Q: And the kon [4]?
A: Its kon is 670000 M⁻¹ s⁻¹.

Q: And the Kd [5]?
A: Its Kd is 1.3 nM.

Q: And the koff [5]?
A: Its koff is 0.00038 s⁻¹.

Q: What about the kon [5] of the same binder?
A: The kon was 300000 M⁻¹ s⁻¹.

Q: And the Kd [6]?
A: Its Kd is 8.2 nM.

Q: And the koff [6]?
A: Its koff is 0.0031 s⁻¹.

Q: And the kon [6]?
A: The kon was 370000 M⁻¹ s⁻¹.

Q: And the Kd [7]?
A: The Kd was 7.8 nM.

Q: What about the koff [7] of the same binder?
A: The koff was 0.0051 s⁻¹.

Q: And the kon [7]?
A: The kon was 660000 M⁻¹ s⁻¹.
